Source: publication PMC5744401

Columns and labels:
Conditions in all cases: EMSA: 0.3 nM DIG-labeled probe; buffer, salt, pH and temperature as in Zhu et al. 2016 (not given)
[1] = target: T1, His6-AvaR1 (Streptomyces avermitilis) (UniProt Q82H41); test: EMSA
T1 sequence: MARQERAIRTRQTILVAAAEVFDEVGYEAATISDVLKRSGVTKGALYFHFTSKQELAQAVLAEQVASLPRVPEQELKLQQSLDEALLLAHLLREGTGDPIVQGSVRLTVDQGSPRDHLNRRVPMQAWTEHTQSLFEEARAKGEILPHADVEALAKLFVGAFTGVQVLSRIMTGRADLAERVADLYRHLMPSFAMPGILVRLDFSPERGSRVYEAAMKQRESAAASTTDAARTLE

[2] = target: T1, His6-AvaR1 (Streptomyces avermitilis); test: competition EMSA
[3] = target: T2, His6-AvaR2 (Streptomyces avermitilis) (UniProt Q82H44); test: EMSA
T2 sequence: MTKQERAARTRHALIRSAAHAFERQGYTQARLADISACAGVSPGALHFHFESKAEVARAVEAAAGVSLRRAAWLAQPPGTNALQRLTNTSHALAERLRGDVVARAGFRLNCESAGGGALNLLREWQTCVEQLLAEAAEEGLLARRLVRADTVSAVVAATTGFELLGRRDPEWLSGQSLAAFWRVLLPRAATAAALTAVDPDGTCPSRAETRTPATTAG

[4] = target: T1, His6-AvaR1 (Streptomyces avermitilis); test: DNase I footprinting
[5] = target: T3, GST-AvaR2 (Streptomyces avermitilis) (UniProt Q82H44); test: EMSA
T3 sequence: T2 sequence

[6] = target: T4, His6-AvaR1;GST-AvaR2 (Streptomyces avermitilis;Streptomyces avermitilis) (UniProt Q82H41+Q82H44); test: EMSA
T4 sequence 1: T1 sequence
T4 sequence 2: T2 sequence

[7] = test system: His6-AvaR1 (Streptomyces avermitilis); test: competition EMSA

Substance | binding [1] | other results
ACTGATGCGCGAGAAAACCGCACAAGCGGTTTGTTAAAGTTGCTGGACCCCCATCAGCAACGGAGCGCCCGATGGTCAAGCAGGTCAGACAGGAACGCGCGATCCGCACGCGCAACGCCTTGATCGAGTCC (double strand) [avaR3p] | binds | binding signal (affinity rank of 5 (1 = strongest)) [2]: 1
ATCCACGCTTCTCGCTCCGCCCAGTGTACGGCGCCGCGCGGACAGCGGCCGACCGGTTTTCCGGGGCCCGCGCGGAAGGCGGCAGGGGGGCCGGTACGGGCCGCGGACTGACCCGAATGGCGA (double strand) [ileSp] | no binding | 
CCCTCGACCGGATTGTGGGAGCATCGTGCCATTCCAAGTGGCCGCTATGTGACCGAGTGCCCCCGATCGGCCCCAGATGGCGGGTTAAGGCTAATTAAGGAAACCCCCTGACGCCCCCTGACGGGGTCTGCTCACCCGCACGGCATGATGGCCCCCATGCGTGCGGTGGTGCAGAGGGTGGACGGCGCGAGCGTCGTCGTGGAAGGCGAGAACGGGCCGGAGACGGTCGGTGAGATCAACGGCGAGG (double strand) [amfCp] | binds | 
CCGCTGGAGTCTGAGAAGCCATGGAAGCATTCACCACGCACACCGGCCGGGCCGTCCCGCTGCGCCGCAGCAACGTCGACACCGACCAGATCATCCCCGCCCACTGGCTCAAGAAGGTCACCAGGGACGGTTTCGAGGACGGGCTGTTCGAGGCCTGGCGCAAGGACGAGTCCTTCATCCTCAACCG (double strand) [leuDp] | binds | 
CTCGGGCGTGATCCGACTGCGGCGCACCGTTGCGGTCTCAGTCATCGCACTCGCCTCTCCTGCTTCGAACGACACGGTTTCCGGTTGCGTACGTCTACCCGTACGTCTTCCTCGTACCTTCCTGAAGATACCCCGAGAGCGAGCGAAACGAAACCGTTTCGTACGTGTCGTGGGTCACGCACATGTTTTCACAAGTTGCCGGGGCCCGTCGCGCGGAAAAGCATGGGTTAGGTGAACCCCGAGTCCGA (double strand) [aveTp] | binds | binding [3]: binds
GAACTGGGTGACGAGGAGCTTCTCGCGAAGCTTCGCGAAGCCAAGGAAGAGCTGTTCAACCTCCGCTTCCAGGCGGCGACCGGTCAGCTCGAGAACCACGGTCGGCTCAAGGCCGTCCGCAAGGACATCGCGCGGATCTACACCCTGATGCGTGAGCGCGAGCTGGGCATCGAGACGGTGGAGAGCGCCTGATGAGCGAGAGCAACGTGACTGAGACCAACGAGCAGCGCGGTTTCCGCAAGACCCGTGAGGGTCTGGTCGTCAGCGACAAGATGGACAA (double strand) [rpsQp] | binds | 
GAGCTTCTCCCTGGCTTGGGACGGGCTGACGTGAACCACGGGACCCGAGAAGGGCTGAGGAAGGGCTGGAGAGCTGCGGAAGAGCTGCGGAGGAGCTGCGGAAGAGCTGCGGAAGAGCTGGAGGTCAAAGATACGTACTAGACGGTTTTGTCTTCAAGTCCCTCTTGCGGTCAAGGGTCATCCCTTACAAGGGAGTTGGGGGTGAGATATGTGTTTTTGAGTGGTTTGTGAGAGGGCG (double strand) [acop] | binds | binding signal (affinity rank of 5 (1 = strongest)) [2]: 4
GCCACACGCACCCTCCGCACCAGCCCGACCAGCGGGACACCGTCCCGACCAGTGGGACACCGTCCGGATCGCGGGACACCGTCCCGACCAGCGGGAAAAGACCAAGCGGTTCGCACCCTAACAGCGACGATCCTCCACTCCACCGCCGAAGACAGGCCCGGTCCTGACCGGGACGATAAAACCAGCTGAACGGTTTTTCAATGCTCCCCTCGCCCTCTCACAAACCACTCAAAAACACATATCTCACCCCCAACTCCC (double strand) [avaR1 footprint probe] |  | binding [4]: binds
GCCACACGCACCCTCCGCACCAGCCCGACCAGCGGGACACCGTCCCGACCAGTGGGACACCGTCCGGATCGCGGGACACCGTCCCGACCAGCGGGAAAAGACCAAGCGGTTCGCACCCTAACAGCGACGATCCTCCACTCCACCGCCGAAGACAGGCCCGGTCCTGACCGGGACGATAAAACCAGCTGAACGGTTTTTCAATGCTCCCCTCGCCCTCTCACAAACCACTCAAAAACACATATCTCACCCCCAACTCCC (double strand) [avaR1p] | binds | binding signal (affinity rank of 5 (1 = strongest)) [2]: 5
GCCCTCGTCCCAGTAGAAGACGGGTCGCCGGGTTCCTGGGCCCGTGGCCCGCATGCGCAGCTCGACCTGGGTGATCACCTCGGTCTGCGTGGTCTCGACTCATGACCGCGCCGGTCAGCGCCTCCACAAGTCGTCCAAGTTTCAGCCGGTGGCAGACATTCCGTGA (double strand) [wbpAp] | no binding | 
GCGGAAGGCGGCTGACCAGAGGGCCCTGCAAGAAACCAGCATAGCGGTTTGTTTGTGGCGCCCGTCACCACTTCGCCGACGCGGTACCCCCGGAGGCCAGGCACCGGTCACTGCCGCCGCCCGCGCTGCCCGCTGCCGCCGCCGAGCCGTACCGCGCGGCTCGGGCGTCGCGCATGCCGTCAGGCCCCCGGCACCTCCCTG (double strand) [avaR2p] | binds | binding signal (affinity rank of 5 (1 = strongest)) [2]: 2
GCTCTTCGTGCTCACCGTCTTCGTCGCGTACGCGTACGTATGGCGGCGCGGCGGTCTGGAATGGGACTGAGGGGCCTTTAACGACATGGGACTCGAAGAAAAGCTGCCGAGCGGATTCCTGCTGACGAC (double strand) [nuoB1p] | binds | 
GGGTAGTGTCAAGGTCGCTGACTTTGATGATTAACTGATGATCGTGGGATTCTGAGGTGGTGTTCGCGAGGGTGAAGGAGTTCCTTCCTGGAGACATCCGTGCCCCGGATGGCGGTCCACAATTCACGAGTGGGATGCGCAGTGGGTCGCGTGCTGCAACACCGAATGGAATACCGGGTGACCGGTATGTATGGC (double strand) [aveRp2] | binds | binding [5]: binds; binding [6]: binds
GTGCTGCAACACCGAATGGAATACCGGGTGACCGGTATGTATGGCGGTGCGGTGACCGCGGAAACGGCTCGGGCGGATTGACCGCCCGAGCCGGAGGAGAAGGCCATCGCCGCACCCGCGAGCAAGGGTCCAGAGGGACGGCGGCGCGAAGGCGGCCTGGCCTATGGGGAGTTCGGAGGACCAGGCGTCA (double strand) [aveRp] | binds | binding signal (affinity rank of 5 (1 = strongest)) [2]: 3
TCAACCACCGTCATGTAGGGCGTACGCCCTTGCTGTACGGACCCGGTGTGTTGACGCCCGGTGCCGCGAGCGCACCCCCGCCCGCTCACGGCACCGGACTTCTCGGTGTTCCGGATGACGTCGTGCAGACGCGTGACAACTGCGCCAGTGCTGGTGCTGTGCAGCGTGTTCATCTCGCGCCCCCCGTCGTGGAGTCCGGTATCCCTGCGGTCTTGCCCTGCTGTCCTGCGGTGGTGCTGCCTTGCTTGTGTCGAAAAGCTTGCC (double strand) [probe 1] | no binding | 
TGCGGTGACCCCCATCTCGATCAGTTCGGTGGGGTGAAACCGCGTGAGCCGGTTGTCGTCCAGGCTCTGGGGCCCGGTGTCCGCGAGGGCGGGGAACGCCCTGAGGGAGGGGTAGGCATAAGGAAGGTACTCGGCGAGGCCGCTGCTGTGGTTGATCAACATCCGGACCGTGATCGCGTCACCGCGTTCTCCGGGAACCAGCCTCGGAAGGTACCGGCCGATCGGAGTGTCAAGACCGATCAGGTCACCGACGAGGAGTGCAACGC (double strand) [2051p] | no binding | 
TTCAACTGACCGTCCCGCACGTAGAGTTCTGGAGTCACCCGCACATGACCGTACGCAAGAACCAGGCGACCCTGACGGCCGACGAGAAGCGGCGCTTCGTCGACGCGCTCGTGGCGCTCAAGCGCAGTGGCCGCTACGACGAGTTCGTCACGACCCACAACGCCTTCATCATGGGCGACACCGACAGCGGCGAACGCACGGGCCATCGTTCGCCTTCCT (double strand) [melC2p] | no binding | 
TTGTGCCCTGTGTGTGCGCCATGGGCATACCGTCCGGGCGGAATGCCGGGTTCCGGCATCGAACGTCGTGCGATTCGGCAGTTCGAGCGATACCGGATGGTTTCGCTTCTGTTCGATTGCGGGGTGTGGTGTAGGCCAGTACGCGAAACTCGCCGGAAAAGGGGCACCCGCCGCCCGTAGGCTGGGAGGCAT (double strand) [3560p] | binds | 
avaR1p |  | binding signal (affinity rank of 5 (1 = strongest)) [7]: 5
avaR2p |  | binding signal (affinity rank of 5 (1 = strongest)) [7]: 2
avaR3p |  | binding signal (affinity rank of 5 (1 = strongest)) [7]: 1
aveRp |  | binding signal (affinity rank of 5 (1 = strongest)) [7]: 3
